Patent US20100062462
Numbering of substitutions follows the chain as printed.

Legend:
[1] = test system: T1, procaspase-8 F355R, F356N
T1 sequence: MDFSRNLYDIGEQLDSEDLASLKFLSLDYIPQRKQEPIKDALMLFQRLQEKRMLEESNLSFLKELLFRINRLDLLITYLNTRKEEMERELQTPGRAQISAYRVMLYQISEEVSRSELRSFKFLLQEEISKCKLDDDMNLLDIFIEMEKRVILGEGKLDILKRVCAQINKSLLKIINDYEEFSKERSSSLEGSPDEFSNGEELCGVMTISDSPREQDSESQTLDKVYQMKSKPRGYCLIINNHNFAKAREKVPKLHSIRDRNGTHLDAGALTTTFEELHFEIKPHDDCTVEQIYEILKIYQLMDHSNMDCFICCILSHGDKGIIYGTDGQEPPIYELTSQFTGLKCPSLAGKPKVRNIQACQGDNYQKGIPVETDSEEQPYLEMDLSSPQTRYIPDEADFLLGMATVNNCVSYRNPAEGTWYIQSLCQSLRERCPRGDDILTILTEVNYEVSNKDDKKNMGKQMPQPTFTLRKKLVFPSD

[2] = test system: T2, Flag-procaspase-8-Myc fusion polypeptide
T2 sequence: T1 sequence with R355F, N356F

procaspase-8 p18 subunit = test system: T3, procaspase-8 p18 subunit
T3 sequence: T1 sequence with R355F, N356F

| Substance | cleavage (autoradiography) [1] | cleavage (autoradiography) [2] | cleavage (LC-MS of the cleaved p18 fragment) (procaspase-8 p18 subunit) |
| --- | --- | --- | --- |
| HIV-1 protease | an almost negligible amount of cleavage was observed when procaspase-8 F355R, F356N was incubated with HIV protease | Incubation of wild-type procaspase-8 with HIV protease resulted in a p41 procaspase-8 fragment | This fragment had a weight of 16158 mass units (cleaved form) |
| renin |  | another aspartyl protease, renin, did not cause procaspase 8 cleavage |  |
